Source: PMC7908025 (ACS Central Science, 2021)

Tests used:
[1] = system: CC(=O)N[C@H]1[C@H]([C@H](O)[C@H](O)CO)O[C@](OP(=O)(O)OC[C@H]2O[C@@H](n3ccc(N)nc3=O)[C@H](O)[C@@H]2O)(C(=O)O)C[C@@H]1O; assay: purified protein
[2] = molecular target: porcine N-acyl-D-glucosamine 2-epimerase (AGE) (Sus scrofa, UniProt P17560); format: biochemical; conditions: 35 °C, 48 h
PmST1 = PmST1 (Pasteurella multocida, UniProt Q15KI8); format: biochemical
[3] = system: CC(=O)N[C@H]1[C@H]([C@H](F)[C@H](O)CO)O[C@@](O[C@H]2[C@@H](O)[C@@H](CO)O[C@@H](Oc3ccc4c(C)cc(=O)oc4c3)[C@@H]2O)(C(=O)O)C[C@@H]1O; assay: purified protein

Chain of porcine N-acyl-D-glucosamine 2-epimerase (AGE) (P17560 whole entry): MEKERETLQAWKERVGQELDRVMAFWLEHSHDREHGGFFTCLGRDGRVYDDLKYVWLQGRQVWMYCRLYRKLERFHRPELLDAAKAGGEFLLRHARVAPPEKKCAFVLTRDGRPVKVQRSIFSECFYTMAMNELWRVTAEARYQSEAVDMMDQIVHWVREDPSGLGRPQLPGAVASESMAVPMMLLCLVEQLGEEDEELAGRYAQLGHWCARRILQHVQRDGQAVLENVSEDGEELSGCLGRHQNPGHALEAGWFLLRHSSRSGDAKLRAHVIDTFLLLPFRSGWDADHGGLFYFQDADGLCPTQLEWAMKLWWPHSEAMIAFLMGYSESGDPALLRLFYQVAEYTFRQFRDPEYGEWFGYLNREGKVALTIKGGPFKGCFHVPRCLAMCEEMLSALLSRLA

With (Photobacterium sp. JT-ISH-224) the Km [1] was 70 (±1) μM and the kcat/Km [1] was 656000 M⁻¹ s⁻¹.

In the case of `CC(=O)N[C@H]1C(O)O[C@H](CO)[C@H](F)[C@@H]1O` (stereo partly drawn) [compound 2, 4-deoxy-4-fluoro-GalNAc], the “one-pot epimerase/aldolase conversion, 19F NMR” value [2] is reported as “the epimerase was converting the GalNAc starting material”.

`CC(=O)N[C@H]1[C@H]([C@H](O)[C@H](O)CO)O[C@](OP(=O)(O)OC[C@H]2O[C@@H](n3ccc(N)nc3=O)[C@H](O)[C@@H]2O)(C(=O)O)C[C@@H]1O` [compound 9, CMP-7OHSA] gave a Km (PmST1) of 89 µM.

With (Micromonospora viridifaciens) the Km [3] was 1.2 (±0.15) mM and the kcat/Km [3] was 2250 ± 1000 M⁻¹ s⁻¹.
